Patent US20050069542A1 (Human Genome Sciences, published 2005)
Blank lines part the entries; values can stand above or below the binder they belong to.

Target: T1, flag-tagged soluble TL3 (amino acids 105-251 of SEQ ID NO:234) (Homo sapiens (Human), UniProt O75888 105-250)
T1 construct: Heterologous flag-tagged control protein, immobilized in the ELISA; also called flagged tagged TL-3; not shown: Flag tag
T1 sequence: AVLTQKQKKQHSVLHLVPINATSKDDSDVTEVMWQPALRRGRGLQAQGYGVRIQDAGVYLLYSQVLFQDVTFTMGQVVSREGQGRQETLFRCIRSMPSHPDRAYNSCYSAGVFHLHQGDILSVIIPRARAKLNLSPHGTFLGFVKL
Test: phage ELISA on immobilized flag-tagged soluble TL3
In short: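 Phage displaying scFvs selected against flag-tagged GMAD were screened by ELISA against immobilized flag-tagged soluble TL3 (residues 105-251) as a heterologous flag-tagged counter-target, to check that binding is GMAD-specific.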

B1: GMCC105 (scFv)
scFv: QVQLVQSGGGVVQPGRSLRLSCTASGFNLGSHGMHWVRQAPGKGLEWVAVIGFDGTTKYYVDSVKGRFTISRDNSRNTLSLQMNSLRAEDTAVYYCVREDYYYDSSGYYFDYWGRGTLVTVSSGGGGSGGGGSGGGGSALSSELTQDPFVSVALGQTVRIACRGDSLRDSYASWYQQKPGQAPRLLVYGNNLRPSGIPGRFSGSSSGDTASLSITETQAGDEADYYCSSRGNSTSRLYVFGTGTKLTVLG
binding result: no binding

B2: GMCC108 (scFv)
scFv: EVQLVQSGAEVKEPGASVTVSCKASGYTFISYHMHWVRQAPGQGLEWMGIINPSGGDTTYAQKFQGRVTMTRDTSTSTVYMELRSLRFEDTARYYCARDLKFYDFRSGKYQDYGMDVWGQGTLVTVSSGGGGSGGGGSGGGGSAQSVLTQPPSLSVAPGQTASITCGGNDIGTKSVHWYQLKPGQAPVLVVYDNRDRPSGIPERFSGSNSGNTATLTISRVEGGDEADYYCQVWDSSIDHSEYVFGTGTKLTVLG
binding result: no binding

B3: GMBC610 (scFv)
scFv: QVTLKESGAEVKKPGASVKVSCKTSGFTFGAYYIHWVRQVPGQGLEWMGWIDPNNGGTNYAQKFQGRVTMTRDMSTTTTYMEVSGLHSDDTAVYYCARARVATILEYWGRGTLVTVSSGGGGSGGGGSGGGGSPELTQDPAVSVALGQTVRITCQGDSLRSYYASWYQQKPGQAPVLVIYGKNNRPSGIPDRFSGSSSGNTASLTITGAQAEDEADYYCNSRDSSGNHVVFGGGTKLTVLG
binding result: no binding

B4: GMCC101 (scFv)
scFv: EVQLVQSGAEVKKPGSSVKVSCKASGGTFRTYAITWVRQAPGQGLEWMGGIIPISATANYAQKFQGRVTITADESMSTAYMELSSLRSEDTAVYYCARDREPHYFDNWGRGTMVTVSSGGGGSGGGGSGGGGSALPVLTQPPSVSEAPRQGVTISCSGSSSNIGNNAVSWYQQLPGQAPKLLIYYDDLLPSGVSDRFSASKSGTSASLAISGLQSEDEADYYCAAWDDSLNGVIFGGGTQLTVLS
binding result: no binding

B5: GMCC114 (scFv)
scFv: EVQLVESGPEVKKPGSSVKVSCKASGAAAFSSYAISWVRQAPGRGLEWMGGIIPISDTPKYAHKFQGRVTITADESTTTVFMEVSGLRSDDTAVYYCATTTRYGSGTYDYMDVWGQGTMVTVSSGGGGSGGGGSGGGGSALSSELTQDPAVSVALGQTVRITCQGDSLRSYYASWYQQKPGQAPVLVFYGKNKRPSGIPDRFSGSTSGNTASLSITGALADDEADYYCHSRDTSGAQILFGGGTKLTVLG
binding result: no binding

B6: GMCC112 (scFv)
scFv: QVQLVQSGGGLVQPGGSLRLSCAASGFSFSTYAMSWVRQAPGKGLEWVSGVSDGGDTFYADSVRGRFTLSRDNAKNTLFLQMNSLTAEDTATYYCAKEIARIGVPNFDHWGQGTLVTVSSGGGGSGGGGSGGGGSALETTLTQSPGTLSLSPGDRATLSCRASQSIRNNDVAWYQQKPGQAPRLLIYSASRRATDIPDRFSGSASGTDFTLTISRLEPEDFAMYYCQQYGGSASFGQGTRLEIKR
binding result: no binding

B7: GMBC730 (scFv)
scFv: QVQLVESGGDSVKPGGSLRLSCAGSGFTFSDAWMNWVRQAPGKGLEWVGRMKSKGSGGTRDYAAPVNGRFTISRDDSKNTLYLQMNSLNTEDTGVYYCTWDWDFYYGMDVWGKGTTVTVSSGGGGSGGGGSGGGGSQSVLTQPASVSGSPGQSITISCTGTSSDVGGYNYVSWYQQHPGKAPKLMIYEGSKRPSGVSNRFSGSKSGNTASLTISGLQAEDEADYYCSSYTTRSTRVFGGGTKLTVLG
binding result: no binding

B8: GMBC696 (scFv)
scFv: EVQLVQSRAEVKKPGASVKVSCKTSGYTFNGYYIHWVRQAPGQGLEWMGWIDPINSVTNYAQNFQGRVTMTRDTSINTAYMELSRLTSDDTAVYYCARARVSTILQYWGQGTLVTVSSGGGGSGGGGSGGGGSSELTQDPAVSVALGQTVRITCQGDSLRSYYASWYQQKPGQAPVLVIYGKNNRPSGIPDRFSGSSSGNTASLTITGAQAEDEADYYCNSRDSSGNHVVFGGGTKLTVLG
binding result: no binding

Now from value to binder:

binding result: no binding
B9: GMBC691 (scFv)
scFv: EVQLVQSGAEVKKPGASMKVSCKTSGDTFNGFYVHWVRQAPGQGLEWMGRINPNGGGTNYAQKFQGRVTMTRDTSMNTAYMELRSLRSDDTAVYYCARDLFYDFWSDYYRNDQYYYMDVWGRGTLVTVSSGGGGSGGGGSGGGGSSELTQDPAVSVALGQTVRITCQGDSLRSYYASWYQQKPGQAPVLVIYGKNNRPSGIPDRFSGSSSGNTASLTITGAQAEDEADYYCNSRDSSGNHVVFGGGTKLTVLG

binding result: no binding
B10: GMCC107 (scFv)
scFv: QVQLVQSGAEVKKPGASVKVSCRTSGYTFTDHSMHWVRQAPGQRFEWMGWIGADSGSTQYSRNFQGRLTIGRDTSASTVYMELTSLRSEDTAVYYCARVGGGQGWYSGMDVWGRGTLVTVSSGGGGSGGGGSGGGGSAQAVLTQPSSVSGAPGQRVTISCTGSSSNIGASYDVHWYQQLPGTAPKLLIYNNNNRPSGVPDRFSGSRSGTSASLAITGLQAEDEADYYCHSYDSNLSGDVFGSGTKLTVLG

binding result: no binding
B11: GMCC110 (scFv)
scFv: QVQLQESGPGLVKPSQTLSLTCTVSGASISSGGYRWIWIRQHPGQGLEWIGDIHYSGSTQYNPSLKSRVALTLDRSKNQFSLQLSSVTAADTAVYYCARDPRGHTYGYGYYFDYWGKGTLVTVSSGGGGSGGGGSGGGGSALSSELTQDPDVSVALGQTVTITCQGDRLRRYYASWYQQKPGQAPVLVIFRKNNRPSGIPDRFSGSSSGDTASLTITGAQAEDEADYYCNSRDTSGTLSFGGGTQLTVLS

binding result: no binding
B12: GMBC689 (scFv)
scFv: QVQLVESGGGLVKPGGSLRLSCAASGFTFSDAWMNWVRQAPGKGLEWVGRIKSKGSGGTIDYAAPVKDRFTISRDDSKNTLYLQMNSLKTEDTALYYCTWDWDFYYGMNVWGQGTLVTVSSGGGGSGGGGSGGGGSQSVLTQPPSASGSPGQSVTISCTGTSSDVGGYNYVSWYQQHPGKAPKFMIYDVSKRPSGVSNRFSGSKSGNTASLTISGVQAEDEADYYCSSYTSASTVVFGGGTKLTVLG

binding result: no binding
B13: GMCC118 (scFv)
scFv: EVQLVQSGGGLVKPGGSLRLSCTASGFSFTNAWMSWVRQAPGKGLEWVGRIKSRNDGGATDYAAPVKGRFTISRDDSKNTLYLQMNSLKTDDTAVYYCTTDNFPLRFLEWLSHPDYWGQGTMVTVSSGGGGSGGGGSGGGGSAQAVLTQPSSVSVSPGQTVTITCSGEKLDNKYISWYQQRPGRSPILVIYQDRKRPSGIPERFSGSNSGNTATLTITGSQPLDEADYYCQAWDSSTAWEFGGGTKLTVLG

binding result: no binding
B14: GMCC106 (scFv)
scFv: QVQLQESGPGLVKPSGTLSLTCAVSVGSINESNWWSWVRQSPGKGLEWIGEIYPTGTTNYNPSLESRVTISVDKSRNLFSLKLKSVTAADSAMYFCARDRWAGGFDLWGRGTMVTVSSGGGGSGGGGSGGGGSAQSVLTQPPSASGTPGQRVTISCSGSSSNIGSNSVYWYQQLPGTAPKLLIYRNNQRPSGVPDRFSASKSGTSASLAISGLRSEDEADYYCAAWDDSLSGLVFGGGTKLTVLG
